# Reference: patent publication US20250277020A1 (Boehringer Ingelheim, published 2025)
# Substitutions are numbered along the chain they refer to. Several values for one entry are separate records, joined by “and”; a condition that tells them apart may be missing. Equal entries are not always repeated.
# T1: Full-length human CTGF (human, UniProt P29279 27-349)
# T1 construct: Corresponds to NCBI NP_001892.1 with the signal peptide omitted; purchased from R&D Systems; also called hCTGF full length; full length CTGF
# T1 sequence: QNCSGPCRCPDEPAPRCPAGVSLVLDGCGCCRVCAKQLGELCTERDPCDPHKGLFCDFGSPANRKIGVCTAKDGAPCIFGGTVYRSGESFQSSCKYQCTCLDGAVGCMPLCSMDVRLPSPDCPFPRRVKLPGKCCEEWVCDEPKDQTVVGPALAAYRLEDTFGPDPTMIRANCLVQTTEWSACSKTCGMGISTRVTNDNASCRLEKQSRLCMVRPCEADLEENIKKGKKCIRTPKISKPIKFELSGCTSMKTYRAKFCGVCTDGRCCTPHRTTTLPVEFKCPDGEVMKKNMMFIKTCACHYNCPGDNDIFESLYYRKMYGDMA
# T2: Human N-terminal fragment of CTGF (CTGF-NTF) (human, UniProt P29279 27-180)
# T2 construct: Recombinantly expressed; also called hCTGF NTF; CTGF N-terminal fragment
# T2 chain: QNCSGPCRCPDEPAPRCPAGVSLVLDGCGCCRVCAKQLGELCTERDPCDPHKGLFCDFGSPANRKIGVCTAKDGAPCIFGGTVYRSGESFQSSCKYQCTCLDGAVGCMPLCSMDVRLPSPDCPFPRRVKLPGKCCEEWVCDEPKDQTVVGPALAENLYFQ
# B1: A115 (antibody, human IgG1, kappa, L234A L235A)
# light: DIVMTQTPLSLSVSLGDQASISCKSSQSIVHYNEKTYLEWYLQKPGQSPQLLIYKVSSRASGVPDRFSGSGSGTDFTLKISRVEAEDLGVYYCFQGSHFPLTFGQGTKLEIKRTVAAPSVFIFPPSDEQLKSGTASVVCLLNNFYPREAKVQWKVDNALQSGNSQESVTEQDSKDSTYSLSSTLTLSKADYEKHKVYACEVTHQGLSSPVTKSFNRGEC
# heavy: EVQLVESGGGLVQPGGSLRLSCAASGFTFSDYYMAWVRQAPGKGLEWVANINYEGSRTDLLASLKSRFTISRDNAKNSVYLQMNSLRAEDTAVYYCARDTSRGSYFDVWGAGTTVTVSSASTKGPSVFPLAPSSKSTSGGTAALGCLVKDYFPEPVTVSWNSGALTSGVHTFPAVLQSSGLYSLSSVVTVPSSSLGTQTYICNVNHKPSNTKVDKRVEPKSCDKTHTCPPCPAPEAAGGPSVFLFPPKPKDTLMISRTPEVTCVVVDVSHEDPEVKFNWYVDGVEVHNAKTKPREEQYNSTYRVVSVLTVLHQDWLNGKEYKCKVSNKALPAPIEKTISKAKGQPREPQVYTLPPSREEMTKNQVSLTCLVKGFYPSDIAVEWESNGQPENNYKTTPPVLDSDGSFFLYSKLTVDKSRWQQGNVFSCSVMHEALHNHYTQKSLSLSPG
# B2: A116 (antibody, human IgG1, kappa, L234A L235A)
# light: B1 light
# heavy: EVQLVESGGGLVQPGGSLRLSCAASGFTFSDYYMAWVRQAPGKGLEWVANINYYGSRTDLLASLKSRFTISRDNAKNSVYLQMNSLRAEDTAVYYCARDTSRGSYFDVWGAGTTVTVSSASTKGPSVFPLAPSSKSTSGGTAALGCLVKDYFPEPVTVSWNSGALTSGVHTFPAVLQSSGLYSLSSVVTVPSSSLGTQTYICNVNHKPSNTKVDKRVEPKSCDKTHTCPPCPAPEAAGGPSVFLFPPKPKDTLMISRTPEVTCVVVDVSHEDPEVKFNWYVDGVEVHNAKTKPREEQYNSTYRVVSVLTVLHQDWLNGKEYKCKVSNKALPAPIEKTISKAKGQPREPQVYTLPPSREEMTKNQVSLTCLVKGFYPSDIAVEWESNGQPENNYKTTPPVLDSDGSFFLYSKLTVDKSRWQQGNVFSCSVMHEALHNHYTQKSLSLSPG
# B3: A117 (antibody, human IgG1, kappa, L234A L235A)
# light: B1 light
# heavy: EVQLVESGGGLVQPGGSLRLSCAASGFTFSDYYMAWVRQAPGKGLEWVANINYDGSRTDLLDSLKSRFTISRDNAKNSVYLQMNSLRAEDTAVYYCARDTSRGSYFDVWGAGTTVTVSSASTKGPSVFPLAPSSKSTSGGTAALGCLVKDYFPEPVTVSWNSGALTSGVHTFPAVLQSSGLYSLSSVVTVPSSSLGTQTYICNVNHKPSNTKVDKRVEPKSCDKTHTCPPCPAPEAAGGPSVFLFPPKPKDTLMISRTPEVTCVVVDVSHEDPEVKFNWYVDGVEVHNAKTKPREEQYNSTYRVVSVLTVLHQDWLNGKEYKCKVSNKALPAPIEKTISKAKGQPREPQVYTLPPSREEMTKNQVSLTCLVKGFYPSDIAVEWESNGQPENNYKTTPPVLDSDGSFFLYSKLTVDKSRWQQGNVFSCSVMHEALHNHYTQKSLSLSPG
# B4: A118 (antibody, human IgG1, kappa, L234A L235A)
# light: B1 light
# heavy: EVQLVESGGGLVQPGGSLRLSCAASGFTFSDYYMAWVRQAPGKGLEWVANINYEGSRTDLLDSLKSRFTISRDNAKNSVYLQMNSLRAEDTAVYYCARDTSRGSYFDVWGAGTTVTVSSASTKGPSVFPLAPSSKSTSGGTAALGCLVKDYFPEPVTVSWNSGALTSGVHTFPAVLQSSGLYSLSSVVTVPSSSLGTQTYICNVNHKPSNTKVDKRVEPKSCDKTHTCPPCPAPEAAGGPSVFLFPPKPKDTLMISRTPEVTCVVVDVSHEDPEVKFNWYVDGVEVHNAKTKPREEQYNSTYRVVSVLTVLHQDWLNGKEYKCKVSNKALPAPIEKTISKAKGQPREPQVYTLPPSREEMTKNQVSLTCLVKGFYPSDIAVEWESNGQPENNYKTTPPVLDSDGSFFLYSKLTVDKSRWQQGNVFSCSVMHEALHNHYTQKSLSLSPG
# B5: A119 (antibody, human IgG1, kappa, L234A L235A)
# light: B1 light
# heavy: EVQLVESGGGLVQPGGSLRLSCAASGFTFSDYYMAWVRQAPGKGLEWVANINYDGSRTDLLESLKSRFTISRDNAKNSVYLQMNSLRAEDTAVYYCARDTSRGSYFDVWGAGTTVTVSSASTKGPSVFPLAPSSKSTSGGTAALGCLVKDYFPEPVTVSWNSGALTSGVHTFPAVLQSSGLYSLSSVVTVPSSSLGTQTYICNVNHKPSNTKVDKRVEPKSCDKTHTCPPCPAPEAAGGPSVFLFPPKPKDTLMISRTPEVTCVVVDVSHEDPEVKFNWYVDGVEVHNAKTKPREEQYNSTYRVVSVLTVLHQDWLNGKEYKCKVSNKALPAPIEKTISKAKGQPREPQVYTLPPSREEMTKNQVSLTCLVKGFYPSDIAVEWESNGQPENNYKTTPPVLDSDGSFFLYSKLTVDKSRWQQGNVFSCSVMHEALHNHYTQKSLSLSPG
# B6: A120 (antibody, human IgG1, kappa, L234A L235A)
# light: B1 light
# heavy: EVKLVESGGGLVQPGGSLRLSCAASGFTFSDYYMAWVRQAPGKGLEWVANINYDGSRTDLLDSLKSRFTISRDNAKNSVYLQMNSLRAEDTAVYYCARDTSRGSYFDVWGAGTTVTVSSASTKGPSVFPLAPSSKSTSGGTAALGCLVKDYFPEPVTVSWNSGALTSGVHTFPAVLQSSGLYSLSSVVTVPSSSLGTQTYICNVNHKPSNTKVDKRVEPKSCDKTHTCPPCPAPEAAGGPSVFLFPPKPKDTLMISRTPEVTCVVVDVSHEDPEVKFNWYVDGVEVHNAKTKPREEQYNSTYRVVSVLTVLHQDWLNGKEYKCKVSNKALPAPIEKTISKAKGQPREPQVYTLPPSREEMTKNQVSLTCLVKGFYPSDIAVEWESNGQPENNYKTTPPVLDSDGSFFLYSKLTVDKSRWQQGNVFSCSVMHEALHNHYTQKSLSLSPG
# B7: A13 (antibody, human IgG1, kappa, L234A L235A)
# light: VVMTQTPLSLSVSLGDQASISCKSSQSIVHYNEKTYLEWYLQKPGQSPQLLIYKVSSRASGVPDRFSGSGSGTDFTLKISRVEAEDLGVYYCFQGSHFPLTFGQGTKLEIKRTVAAPSVFIFPPSDEQLKSGTASVVCLLNNFYPREAKVQWKVDNALQSGNSQESVTEQDSKDSTYSLSSTLTLSKADYEKHKVYACEVTHQGLSSPVTKSFNRGEC
# heavy: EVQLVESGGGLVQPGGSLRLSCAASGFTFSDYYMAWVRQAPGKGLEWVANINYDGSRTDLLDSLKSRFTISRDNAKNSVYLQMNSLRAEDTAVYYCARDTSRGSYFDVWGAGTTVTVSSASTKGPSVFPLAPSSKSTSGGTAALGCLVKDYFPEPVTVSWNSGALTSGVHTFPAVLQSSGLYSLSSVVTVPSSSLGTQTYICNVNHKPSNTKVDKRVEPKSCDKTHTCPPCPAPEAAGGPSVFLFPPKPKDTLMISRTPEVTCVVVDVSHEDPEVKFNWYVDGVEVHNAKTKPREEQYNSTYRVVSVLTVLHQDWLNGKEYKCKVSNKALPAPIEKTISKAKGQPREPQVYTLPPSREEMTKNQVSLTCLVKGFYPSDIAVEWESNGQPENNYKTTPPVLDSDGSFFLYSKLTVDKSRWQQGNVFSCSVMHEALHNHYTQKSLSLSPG
# notes: also called antibody A13
# B8: Antibody A97 (antibody, human IgG1, kappa, L234A L235A)
# light: B7 light with E33G, K34N
# heavy: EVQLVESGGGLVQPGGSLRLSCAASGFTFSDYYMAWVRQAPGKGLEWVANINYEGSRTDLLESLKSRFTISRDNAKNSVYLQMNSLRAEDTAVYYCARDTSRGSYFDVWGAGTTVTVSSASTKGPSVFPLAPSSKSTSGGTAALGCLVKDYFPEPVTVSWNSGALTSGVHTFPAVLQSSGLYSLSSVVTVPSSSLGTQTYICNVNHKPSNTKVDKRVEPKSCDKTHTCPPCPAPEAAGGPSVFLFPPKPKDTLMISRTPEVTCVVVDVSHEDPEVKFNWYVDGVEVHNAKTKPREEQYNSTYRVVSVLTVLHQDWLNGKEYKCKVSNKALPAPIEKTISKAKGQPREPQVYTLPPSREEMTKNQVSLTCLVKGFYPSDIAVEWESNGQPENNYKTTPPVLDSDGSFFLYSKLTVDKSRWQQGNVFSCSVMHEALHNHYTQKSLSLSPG
# notes: also called Antibody 97
# B9: Antibody H1 (antibody, human IgG1, lambda, V domains shown)
# VH: EVTLKESGPVLVKPTETLTLTCTVSGFSLSTFGVHWIRQPPGKGLEWLGVIWRRGGTDYNAAFMSRLTISKDTSKSQVVFTMTNMDPVDTATYYCARDGGFDYWGQGTTVTVSS
# VL: ETVVTQEPSLTVSPGGTVTLTCRSSIGAVTTSNYANWVQQKPGQAFRGLIGGTSNRAPWTPARFSGSLLGGKAALTLSGVQPEDEAEYYCALWYSTHYVFGGGTKLTVLG
# notes: Comparator anti-CTGF antibody, full length
# B10: Antibody H2 (antibody, human IgG1, kappa, V domains shown)
# VH: EVQLVESGGGLVQPGGSLRLSCAASGFSFNTYAMNWVRQAPGKGLEWVARIRTKSNNYATYYADSVKDRFTISRDDSESSLYLQMNSLKTEDTAVYYCVETGFAYWDQGTLVTVSS
# VL: EIVLTQSPATLSLSPGERATLSCSASSSVSYMHWFQQKPGQSPKLWIYSTSNLASGVPARFSGSGSGTDYTLTISSLEPEDFAVYYCQQRSSYPLTFGQGTKLEIKR
# notes: as for B9
# B11: Antibody F1 (antibody, V domains shown)
# VH: EGQLVQSGGGLVHPGGSLRLSCAGSGFTFSSYGMHWVRQAPGKGLEWVSGIGTGGGTYSTDSVKGRFTISRDNAKNSLYLQMNSLRAEDMAVYYCARGDYYGSGSFFDCWGQGTLVTVSS
# VL: DIQMTQSPSSLSASVGDRVTITCRASQGISSWLAWYQQKPEKAPKSLIYAASSLQSGVPSRFSGSGSGTDFTLTISSLQPEDFATYYCQQYNSYPPTFGQGTKLEIKR
# notes: as for B9
# Molecular target: T1, Full-length human CTGF
# Experiment: SPR, full length CTGF
row,Binder,Kd
1,B1,0.66 nM
2,B2,0.69 nM
3,B3,0.81 nM
4,B4,0.81 nM
5,B5,0.91 nM
6,B6,0.84 nM
7,B7,0.25 nM

# Molecular target: T2, Human N-terminal fragment of CTGF …
# Experiment: SPR Biacore 8K+, mAb captured on Protein A/G, hCTGF NTF as analyte
# Protocol: (§1) Binding affinity of anti-CTGF antibodies H1 (having the light chain of SEQ ID NO: 22 and the heavy chain of SEQ ID NO: 23), H2 (having the light chain of SEQ ID NO: 24 and the heavy chain of SEQ ID NO: 25), F1, and A97 for full length human CTGF or human CTGF N-terminal fragment are determined by surface plasmon resonance (SPR).
# (§2) Surface plasmon resonance is conducted using a Biacore 8K+ (Cytiva). Protein A/G (Thermo Scientific) is amine coupled to CM5 Sensor S Chip (Cytiva). For binding to hCTGF N-terminal fragment (NTF), anti-CTGF antibody (1 μg/ml) is captured on the Protein A/G surface, followed by various concentrations of antigen (100 nM to 0.78 nM; 2-fold dilutions). For binding to hCTGF full length, anti-CTGF antibody (0.2 μg/ml) is captured followed by various concentrations of antigen (10 nM to 0.156 nM; 2-fold dilutions).
Binder,Kd,koff,kon
B8,0.14 nM,4e-05 s⁻¹,290000 M⁻¹ s⁻¹
B9,8.82 nM and 8.8 nM,0.0107 s⁻¹,1.22e+06 M⁻¹ s⁻¹
B10,45.7 nM and 46 nM,0.0175 s⁻¹,383000 M⁻¹ s⁻¹
B11,30.3 nM and 30 nM,0.0105 s⁻¹,345000 M⁻¹ s⁻¹

# Molecular target: T1, Full-length human CTGF
# Experiment: SPR Biacore 8K+, mAb captured on Protein A/G, full length hCTGF as analyte
# Protocol: as §1, §2
Binder,Kd,koff,kon
B8,0.0018 nM,4.8e-06 s⁻¹,2.7e+06 M⁻¹ s⁻¹
B9,0.0983 nM and 0.098 nM,0.000671 s⁻¹,6.83e+06 M⁻¹ s⁻¹
B10,0.554 nM and 0.55 nM,0.00149 s⁻¹,2.7e+06 M⁻¹ s⁻¹
B11,0.247 nM and 0.25 nM,0.00337 s⁻¹,1.37e+07 M⁻¹ s⁻¹

# Molecular target: T1, Full-length human CTGF
# Experiment: SPR, full length CTGF; Table 15 screen of humanized variants, SPR on full length CTGF
# In short: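 Humanized antibody variants were made by co-expressing each of eight heavy-chain variable-region variants with each of sixteen light-chain variable-region variants in CHO cells, giving 128 combinations. Binding affinity (Kd) of each combination for full-length human CTGF was determined by surface plasmon resonance. The text gives no instrument, chip, concentrations, temperature, buffer, replicates or fitting model for this measurement.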
row,Binder,Kd
1,B8,0.14 nM
